The labels stand for the following.
B1: SR-AB64: cycle 3 light chain-optimized antibody, lineage SR-AB26; CDRs SEQ ID NO: 298-303 (antibody, V domains shown)
VH: QLQLQESGPGLVKPSETLSLTCTVSGGSIRSSSYYWGWIRQPPGKGLEWIGSISYSATTYYNPSLKSRVTISVDTSKNQFSLKLSSVTAADTAVYYCAGDPSYDSIAGMQVWGQGTTVTVSS
VL: DIQMTQSPSSLSASVGDRVTITCRASQSISYYLNWYQQKPGKAPKLLIYSASSRQSGVPSRFSGSGSGTDFTLTISSLQPEDFATYYCQQGFDFPLTFGGGTKVEIK
B2: SR-AB44: cycle 3 light chain-optimized antibody, lineage SR-AB23; CDRs SEQ ID NO: 178-183 (antibody, V domains shown)
VH: QVQLVESGGGVVQPGRSLRLSCAASGFTFRSYVMHWVRQAPGKGLEWVAVISHEGSLKYYADSVKGRFTISRDNSKNTLYLQMNSLRAEDTAVYYCARPRIAARRGGFGYWGQGTLVTVSS
VL: NFMLTQPHSVSESPGKTVTISCTRSHGNIDDNYVQWYQQRPGSSPTTVIYEDNVRPSGVPDRFSGSIDSSSNSASLTISGLKTEDEADYYCQSYDSDNQLVVFGGGTKLTVL
B3: SR-AB45: cycle 3 light chain-optimized antibody, lineage SR-AB23; CDRs SEQ ID NO: 184-189 (antibody, V domains shown)
VH: B2 VH
VL: B2 VL with H26S, N28A, N53F, V54Q, S96D, N98L, L100G
B4: SR-AB58 Fab (antibody, V domains shown)
VH: B2 VH with L57G, R98L, Y110T
VL: B2 VL with H26S, D31Y, L100R
B5: SR-AB47 Fab (antibody, V domains shown)
VH: B2 VH with L57G, Y110S
VL: B2 VL with H26S, D31Y, S96Y, L100A
B6: SR-AB50 Fab (antibody, V domains shown)
VH: B2 VH with L57G, Y110T
VL: B2 VL with H26S, D31Y, L100R
B7: SR-AB46 Fab (antibody, V domains shown)
VH: B2 VH with L57G, Y110S
VL: B2 VL with H26S, D31Y, L100R
B8: SR-AB60 Fab (antibody, V domains shown)
VH: B2 VH with L57G, R98L, Y110T
VL: B2 VL with H26S, D31Y, S96Y, N98T, L100G
B9: SR-AB53 Fab (antibody, V domains shown)
VH: B2 VH with L57G, Y110T
VL: B2 VL with H26S, D31Y, S93G, S96W, N98T, L100G
B10: SR-AB52 Fab (antibody, V domains shown)
VH: B2 VH with L57G, Y110T
VL: B2 VL with H26S, D31Y, S96Y, N98T, L100G
B11: SR-AB51 Fab (antibody, V domains shown)
VH: B2 VH with L57G, Y110T
VL: B2 VL with H26S, D31Y, S96Y, L100A
B12: SR-AB49 Fab (antibody, V domains shown)
VH: B2 VH with L57G, Y110S
VL: B2 VL with H26S, D31Y, S93G, S96W, N98T, L100G
B13: SR-AB55 Fab (antibody, V domains shown)
VH: B2 VH with L57G, R98L, Y110S
VL: B2 VL with H26S, D31Y, S96Y, L100A
B14: SR-AB41 Fab (antibody, V domains shown)
VH: B2 VH
VL: B2 VL with H26S, D31N, V54Q, S96Y, L100A
B15: SR-AB59 Fab (antibody, V domains shown)
VH: B2 VH with L57G, R98L, Y110T
VL: B2 VL with H26S, D31Y, S96Y, L100A
B16: SR-AB61 Fab (antibody, V domains shown)
VH: B2 VH with L57G, R98L, Y110T
VL: B2 VL with H26S, D31Y, S93G, S96W, N98T, L100G
B17: SR-Ab56 Fab (antibody, V domains shown)
VH: B2 VH with L57G, R98L, Y110S
VL: B2 VL with H26S, D31Y, S96Y, N98T, L100G
B18: SR-AB42 Fab (antibody, V domains shown)
VH: B2 VH
VL: B2 VL with H26S, D31N, V54Q, S96Y, N98T, L100G
B19: SR-AB23 Fab (antibody, V domains shown)
VH: B2 VH
VL: B2 VL with H26S, D31N, V54Q, L100G
B20: SR-AB48 Fab (antibody, V domains shown)
VH: B2 VH with L57G, Y110S
VL: B2 VL with H26S, D31Y, S96Y, N98T, L100G
B21: SR-AB54 Fab (antibody, V domains shown)
VH: B2 VH with L57G, R98L, Y110S
VL: B2 VL with H26S, D31Y, L100R
B22: SR-AB57 Fab (antibody, V domains shown)
VH: B2 VH with L57G, R98L, Y110S
VL: B2 VL with H26S, D31Y, S93G, S96W, N98T, L100G

Substitutions are numbered along the chain they refer to.

huLTBP3 proTGFβ1, sequence (P01137 30-390): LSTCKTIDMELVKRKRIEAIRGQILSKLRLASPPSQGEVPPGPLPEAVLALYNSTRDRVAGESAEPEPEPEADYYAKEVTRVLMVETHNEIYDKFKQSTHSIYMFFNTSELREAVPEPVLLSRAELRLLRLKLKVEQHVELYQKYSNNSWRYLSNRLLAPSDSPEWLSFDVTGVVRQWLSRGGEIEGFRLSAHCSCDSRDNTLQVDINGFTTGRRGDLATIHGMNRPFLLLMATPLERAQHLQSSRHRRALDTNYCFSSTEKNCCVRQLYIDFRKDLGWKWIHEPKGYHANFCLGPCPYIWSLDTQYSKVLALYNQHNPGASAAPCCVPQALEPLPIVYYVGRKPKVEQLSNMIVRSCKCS
huLTBP3 proTGFβ1, sequence (Q9NS15 44-1303): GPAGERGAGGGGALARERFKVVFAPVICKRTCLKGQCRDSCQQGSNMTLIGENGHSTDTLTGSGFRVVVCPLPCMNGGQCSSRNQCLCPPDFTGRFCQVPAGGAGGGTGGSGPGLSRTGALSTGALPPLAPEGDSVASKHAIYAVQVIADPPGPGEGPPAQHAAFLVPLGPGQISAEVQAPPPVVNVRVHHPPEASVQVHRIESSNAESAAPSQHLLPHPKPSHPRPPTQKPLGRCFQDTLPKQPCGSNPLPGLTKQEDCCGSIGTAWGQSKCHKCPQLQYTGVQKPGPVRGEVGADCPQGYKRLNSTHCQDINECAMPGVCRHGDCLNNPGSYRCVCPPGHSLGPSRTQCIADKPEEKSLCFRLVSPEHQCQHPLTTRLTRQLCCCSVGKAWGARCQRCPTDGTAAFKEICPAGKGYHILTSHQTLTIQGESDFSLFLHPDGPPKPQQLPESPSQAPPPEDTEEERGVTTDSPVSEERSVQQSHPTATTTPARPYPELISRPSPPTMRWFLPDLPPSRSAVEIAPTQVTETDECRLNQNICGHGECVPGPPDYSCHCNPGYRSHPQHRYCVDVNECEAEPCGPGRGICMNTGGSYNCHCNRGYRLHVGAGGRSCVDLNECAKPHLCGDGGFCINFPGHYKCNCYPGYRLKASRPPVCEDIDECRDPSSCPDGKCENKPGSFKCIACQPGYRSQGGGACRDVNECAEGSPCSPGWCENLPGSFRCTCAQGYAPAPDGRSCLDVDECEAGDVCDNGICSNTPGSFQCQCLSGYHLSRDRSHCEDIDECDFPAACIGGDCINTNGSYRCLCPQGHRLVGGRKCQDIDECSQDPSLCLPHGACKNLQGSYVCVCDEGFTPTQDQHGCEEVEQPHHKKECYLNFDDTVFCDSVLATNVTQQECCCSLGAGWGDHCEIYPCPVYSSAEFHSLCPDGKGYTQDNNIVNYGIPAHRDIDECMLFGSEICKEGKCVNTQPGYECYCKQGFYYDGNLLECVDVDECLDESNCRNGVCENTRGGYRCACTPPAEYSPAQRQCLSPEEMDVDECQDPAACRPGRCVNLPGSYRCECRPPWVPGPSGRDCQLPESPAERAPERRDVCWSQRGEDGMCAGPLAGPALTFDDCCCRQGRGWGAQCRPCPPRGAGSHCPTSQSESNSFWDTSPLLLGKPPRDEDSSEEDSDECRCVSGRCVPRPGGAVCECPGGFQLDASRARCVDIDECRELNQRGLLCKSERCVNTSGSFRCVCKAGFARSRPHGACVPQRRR
huGARP proTGFβ1, sequence (P01137 30-390): as the sequence (P01137 30-390) above
huGARP proTGFβ1, sequence (Q14392 18-627 partner limits assumed): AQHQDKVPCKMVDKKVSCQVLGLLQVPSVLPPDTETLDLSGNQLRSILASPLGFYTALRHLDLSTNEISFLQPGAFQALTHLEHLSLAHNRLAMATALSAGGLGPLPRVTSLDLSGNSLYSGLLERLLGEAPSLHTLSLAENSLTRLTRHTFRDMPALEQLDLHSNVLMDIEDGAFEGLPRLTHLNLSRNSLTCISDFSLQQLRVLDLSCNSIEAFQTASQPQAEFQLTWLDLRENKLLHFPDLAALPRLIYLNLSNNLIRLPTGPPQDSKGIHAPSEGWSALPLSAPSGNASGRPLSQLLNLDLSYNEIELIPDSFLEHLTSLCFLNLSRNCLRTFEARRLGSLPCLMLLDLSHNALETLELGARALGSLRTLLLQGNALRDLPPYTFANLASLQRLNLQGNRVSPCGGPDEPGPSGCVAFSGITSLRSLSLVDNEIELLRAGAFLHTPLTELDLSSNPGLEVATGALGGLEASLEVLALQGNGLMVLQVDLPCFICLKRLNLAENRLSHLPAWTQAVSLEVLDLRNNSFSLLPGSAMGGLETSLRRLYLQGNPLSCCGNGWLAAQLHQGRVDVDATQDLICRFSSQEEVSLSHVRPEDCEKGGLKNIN

One experiment deals with huGARP proTGFβ1 (Homo sapiens, UniProt P01137). Nature of the experiment: Octet (BLI) binding, IgG captured on AHC tips, antigen at 100 nM. To be noted: Table 9; cycle 3; IgG1-agly; 1:1 fit; N.B. = non-binder under conditions of this assay. The procedure:
(§1) Suitable methods for in vitro binding assays to determine the parameters of binding kinetics include Bio-layer Interferometry (BLI)-based assays such as Octet, and surface plasmon resonance (SPR)-based assays, such as Biacore systems (see, for example: biophysics.bioc.cam.ac.uk/wp-content/uploads/2011/02/Biacore_assay_handbook.pdf).
(§2) The affinity of SR-AB10, SR-AB2 and SR-AB13 was measured by Octet assay. The protocol used to measure the affinity of the antibodies to the complexes provided herein is summarized below.
(§3) • 96 well black polypropylene plates • AHC Octet tips (anti-human IgG Fc capture tips) (FortdBio) • 10× kinetics buffer (FortdBio) (diluted to 1× in PBS) • reiner Bio-One 96-Well Half Area Microplates (VWR cat #82050-044) Procedure:
(§4) Notes: The volume within each well during an Octet experiment is 100 uL.
(§5) A shake speed of 1000 rpm is used for all assay steps.
(§6) Pre-Wet Tips: • Biosensors must be pre-wet in 1× kinetics buffer (lx KB) for at least 10 minutes before starting an experiment. This can be done inside the Octet or on the bench.
(§7) Loading: • Tips are baselined in 1× KB for 1 minute before loading. • AHC tips are loaded with antibody at a concentration of 1 μg/mL (˜7 nM) for 3 minutes. A limit is set so that loading will stop when any one sensor reaches a response of 1 nanometer. • Tips are baselined in buffer for 1 minute after loading. The antibody should not dissociate from the tips during this time.
(§8) Antigen Association: • TGFβ1 in complex with various presentation molecules was associated to the immobilized antibodies at a single concentration of 100 nM in 1× KB.
(§9) Antibody Dissociation: • Dissociation in 1×KB was performed for 3 minutes.
(§10) Data Analysis using ForteBio Data analysis software 8.2: • Processing: align Y axis to last 5 seconds of baseline, perform inter-step correction with align to dissociation, and perform Savitzky-Golay filtering. • Analysis: 1:1 fitting model is utilized. Fitting is local and full. […] Results:
(§11) LTBP complex-specific antibodies from the first round of affinity maturation/optimization (SR-AB14, SR-AB16, SR-AB17, SR-AB18, SR-AB19) were selected for a second round of affinity maturation/optimization (i.e., CDR-H3 mutagenesis as described herein) and particular progeny antibodies (SR-AB20, SR-AB21, SR-AB22, SR-AB23, SR-AB24, SR-AB25, SR-AB26, SR-AB27, SR-AB28, and SR-AB29) were assessed for their ability to bind various proTGFβl constructs. Binding affinities of the optimized antibodies were measured by Octet against human LTBP1-proTGFβI, human LTBP3-proTGFb1, mouse LTBP1-proTGFβ1, mouse LTBP3-proTGFb1, and GARP-proTGFβl complexes, essentially as described in Example 6. In brief, test antibodies were immobilized to the surface of anti-human Fc capture biosensors (AHC) (ForteBio®) and binding was then tested against the various TGFβ1 complexes at a single concentration of 100 nM to assess binding affinities. The antigens were allowed to associate for 3 minutes followed by a 5-minute dissociation. Kinetics buffer (ForteBio®) was used throughout the experiment, and KD was determined using a 1:1 fitting model for each antibody antigen pair.
(§12) Binding affinities of the optimized antibodies were measured by Octet against human LTBP1-proTGFβ1, human LTBP3-proTGFβ1, mouse LTBP1-proTGFβ1, mouse LTBP3-proTGFβ1, and GARP-proTGFβ1 complexes, essentially as described in Example 6. In brief, test antibodies were immobilized to the surface of anti-human Fc capture biosensors (AHC) (ForteBio®) and binding was then tested against the various TGFβ1 complexes at a single concentration of 100 nM to assess binding affinities. The antigens were allowed to associate for 3 minutes followed by a 5-minute dissociation. Kinetics buffer (ForteBio®) was used throughout the experiment, and KD was determined using a 1:1 fitting model for each antibody antigen pair. […]
Take B1: the “ForteBio IgG KD Hu GARP-proTGFβ1 (M) Avid” value is “N.B”.

The experiment is the same for the next values; noted with them: Table 10; same assay conditions as Table 9; N.B. = non-binder under conditions of this assay.
For B1, the “ForteBio IgG KD Hu GARP-proTGFβ1 in solution (M) Avid” value is given as “N.B”.

Another experiment deals with huLTBP1 proTGFβ1 (Homo sapiens, UniProt P01137+Q14766). The description is as above. The following applies: Table 9; cycle 3; IgG1-agly; 1:1 fit. The protocol: as §1, §2, §3, §4, §5, §6, §7, §8, §9, §10, §11, §12
huLTBP1 proTGFβ1, sequence (P01137 30-390): as the sequence (P01137 30-390) above
huLTBP1 proTGFβ1, sequence (Q14766 347-1721 limits assumed): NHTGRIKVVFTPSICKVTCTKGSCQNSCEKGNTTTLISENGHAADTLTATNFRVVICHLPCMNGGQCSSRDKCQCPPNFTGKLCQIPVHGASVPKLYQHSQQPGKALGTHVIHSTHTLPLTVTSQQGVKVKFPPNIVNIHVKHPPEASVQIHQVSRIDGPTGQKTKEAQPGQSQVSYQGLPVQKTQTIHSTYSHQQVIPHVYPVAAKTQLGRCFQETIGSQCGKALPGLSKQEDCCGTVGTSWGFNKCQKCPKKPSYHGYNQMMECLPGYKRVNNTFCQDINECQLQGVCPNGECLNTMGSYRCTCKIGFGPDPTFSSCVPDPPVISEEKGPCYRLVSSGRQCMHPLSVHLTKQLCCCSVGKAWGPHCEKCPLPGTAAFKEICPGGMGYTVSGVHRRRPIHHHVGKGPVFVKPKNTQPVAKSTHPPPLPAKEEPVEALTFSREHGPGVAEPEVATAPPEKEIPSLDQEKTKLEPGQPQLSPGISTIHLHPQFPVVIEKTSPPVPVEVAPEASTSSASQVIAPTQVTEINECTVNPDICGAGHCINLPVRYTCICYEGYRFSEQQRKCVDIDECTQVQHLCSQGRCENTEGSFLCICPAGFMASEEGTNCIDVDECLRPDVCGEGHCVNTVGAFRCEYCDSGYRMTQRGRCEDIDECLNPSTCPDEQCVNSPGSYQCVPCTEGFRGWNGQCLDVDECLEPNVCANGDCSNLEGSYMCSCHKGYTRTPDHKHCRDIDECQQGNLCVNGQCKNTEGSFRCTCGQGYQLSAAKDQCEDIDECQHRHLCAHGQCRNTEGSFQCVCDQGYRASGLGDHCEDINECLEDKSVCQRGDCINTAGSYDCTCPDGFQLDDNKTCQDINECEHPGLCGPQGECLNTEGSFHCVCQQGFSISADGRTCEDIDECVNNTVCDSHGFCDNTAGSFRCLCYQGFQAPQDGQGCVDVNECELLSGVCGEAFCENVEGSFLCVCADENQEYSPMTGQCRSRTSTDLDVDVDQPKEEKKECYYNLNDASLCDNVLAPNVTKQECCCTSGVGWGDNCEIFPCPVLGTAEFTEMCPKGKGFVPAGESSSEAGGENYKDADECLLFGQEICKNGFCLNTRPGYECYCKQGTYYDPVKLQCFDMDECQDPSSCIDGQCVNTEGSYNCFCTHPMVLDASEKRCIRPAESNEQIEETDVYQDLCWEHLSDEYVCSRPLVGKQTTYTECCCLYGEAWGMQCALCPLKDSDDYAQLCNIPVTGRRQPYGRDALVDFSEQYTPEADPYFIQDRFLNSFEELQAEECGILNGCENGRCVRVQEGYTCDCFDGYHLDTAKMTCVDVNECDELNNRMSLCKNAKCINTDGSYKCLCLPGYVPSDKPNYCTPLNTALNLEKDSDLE
Regarding B2, the “Hu LTBP1-proTGFβ1 Kon” value amounted to 280000 M⁻¹ s⁻¹.
The same measure, in the same setting: to B3 belongs 310000 M⁻¹ s⁻¹.

The experiment is the same for the next values; noted with them: Table 9; cycle 3; IgG1-agly; 5-minute dissociation.
Regarding B2, the “Hu LTBP1-proTGFβ1 Koff” value was found to be 6e-05 s⁻¹.
On the same count and under the same terms, then B3, with 6e-05 s⁻¹.

The target in a further experiment is huLTBP3 proTGFβ1 (Homo sapiens, UniProt P01137+Q9NS15). The experiment is described as above. The following applies: Table 9; cycle 3; IgG1-agly; 1:1 fit. The protocol:
as §1, §2, §3, §4, §5, §6, §7, §8, §9, §10, §11
Binding affinities of the optimized antibodies were measured by Octet against human LTBP1-proTGFβ1, human LTBP3-proTGFβ1, mouse LTBP1-proTGFβ1, mouse LTBP3-proTGFβ1, and GARP-proTGFβ1 complexes, essentially as described in Example 6. In brief, test antibodies were immobilized to the surface of anti-human Fc capture biosensors (AHC) (ForteBio®) and binding was then tested against the various TGFβ1 complexes at a single concentration of 100 nM to assess binding affinities. The antigens were allowed to associate for 3 minutes followed by a 5-minute dissociation. Kinetics buffer (ForteBio®) was used throughout the experiment, and KD was determined using a 1:1 fitting model for each antibody antigen pair.
In the case of B1, the “Hu LTBP3-proTGFβ1 Kon” value stood at 195000 M⁻¹ s⁻¹.
Same read-out and setting: to B2 belongs 410000 M⁻¹ s⁻¹; to B3, 491000 M⁻¹ s⁻¹.

The experiment is the same for the next values; noted with them: Table 9; cycle 3; IgG1-agly; 5-minute dissociation.
Consider B1, for which the “Hu LTBP3-proTGFβ1 Koff” value was 9.18e-05 s⁻¹.
Same read-out and setting: then B2, with 6e-05 s⁻¹.
Same read-out and setting: to B3 belongs 6e-05 s⁻¹.

The test system of a further experiment is proTGFβ1 presented by endogenous LTBP1/3 in LN229 cells. Nature of the experiment: Endogenous LTBP caga assay: LN229 cells transfected with human proTGFβ1 only, CAGA12 luciferase reporter cells. It counts as cell-based. The following applies: Table 20: protocol of Example 10 with Fabs (RefAb also as hIgG4), assay format not stated. A general note: Reporter assays use an easily measured gene product as a stand-in for the process of interest.
proTGFβ1 presented by endogenous LTBP1/3 in LN229 cells, sequence (P01137 30-390): as the sequence (P01137 30-390) above
B4: half-maximal inhibition (IC50) was put at 4.86 nM.
As to B5, inhibition was half-maximal at 0.186 nM (IC50).
Still for that read-out and setting: to B6 belongs 11 nM; to B7, 0.495 nM; to B8, 0.742 nM.
The same measure, in the same setting: to B9 belongs 1.18 nM; to B10, 0.459 nM.
On the same count and under the same terms, then B11, with 0.535 nM.
Regarding B12, half-maximal inhibition (IC50) required 1.02 nM.
Still for that read-out and setting: then B13, with 0.536 nM; and B14, with 0.486 nM.
Still for that read-out and setting: then B15, with 0.195 nM.
On the same count and under the same terms, then B16, with 0.47 nM; and B17, with 0.439 nM; and B18, with 0.667 nM.
With B19, the IC50 (as a rule, the concentration needed to halve the response being measured) turned out to be 8.53 nM.
Still for that read-out and setting: then B20, with 0.523 nM.
Turning to B21, the IC50 was determined as 5.87 nM.
The same measure, in the same setting: then B22, with 0.775 nM.
